Laboratory results taken from patent US20030013173A1.

What was measured:
[1] = biological target: Bovine milk β1,4Gal-transferase (Sigma), mainly representing β4Gal-T1 (bovine) (UniProt P08037); assay: cell-based or functional assay
[2] = biological target: soluble β4Gal-T2 (amino acid residues 31-372 of human UDP-galactose: β-N-acetylglucosamine β-1,4-galactosyltransferase, β4Gal-T2) (human) (UniProt O60909); assay: cell-based or functional assay
Chain of soluble β4Gal-T2 (amino acid residues 31-372 of human UDP-galactose: β-N-acetylglucosamine β-1,4-galactosyltransferase, β4Gal-T2) (human) (O60909 31-372): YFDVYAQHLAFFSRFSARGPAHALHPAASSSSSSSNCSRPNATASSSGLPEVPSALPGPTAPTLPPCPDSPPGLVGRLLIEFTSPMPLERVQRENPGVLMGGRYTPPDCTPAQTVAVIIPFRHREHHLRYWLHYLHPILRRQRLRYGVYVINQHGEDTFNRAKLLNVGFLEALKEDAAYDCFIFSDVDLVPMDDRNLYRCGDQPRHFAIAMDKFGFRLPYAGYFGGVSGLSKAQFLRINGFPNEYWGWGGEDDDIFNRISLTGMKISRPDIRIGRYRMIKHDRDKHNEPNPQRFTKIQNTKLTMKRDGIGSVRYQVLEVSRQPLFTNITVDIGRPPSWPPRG

Chain of Bovine milk β1,4Gal-transferase (Sigma), mainly representing β4Gal-T1 (bovine) (P08037 78-402 limits assumed): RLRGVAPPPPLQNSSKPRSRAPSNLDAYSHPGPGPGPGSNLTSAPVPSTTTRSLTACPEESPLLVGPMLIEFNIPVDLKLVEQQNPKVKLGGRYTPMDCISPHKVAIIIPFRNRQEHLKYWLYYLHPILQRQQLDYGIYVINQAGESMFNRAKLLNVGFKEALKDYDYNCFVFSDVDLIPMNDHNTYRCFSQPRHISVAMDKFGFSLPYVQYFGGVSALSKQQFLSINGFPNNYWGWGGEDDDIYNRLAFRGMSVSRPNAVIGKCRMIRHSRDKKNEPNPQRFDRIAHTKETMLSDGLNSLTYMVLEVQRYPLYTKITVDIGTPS

## α-lactalbumin
[1]
  concentration of a-lactalbumin to achieve maximum activity with Glc: 0.1 mg/mL
[2]
  concentration of a-lactalbumin to achieve maximum activity with Glc: 0.4 mg/mL
